Measurements taken from patent publication US20250361274A1, “PEPTIDE AND PEPTIDE-CONTAINING AGENT” (PEPTIDREAM INC., priority 2022, published 2025).
Numbered stars: 1 amine (or outer) side, 2 acyl side, 3 side chain; on linkers, the order of the positions; unused ones are H or OH. Bridge positions count the residues as written; N and C are the ends. Square brackets hold non-standard residues; d marks the D form. Ends that are not written are not given here. Peptide text beside a SMILES is read from it. KCOpipzaa = N6-(4-(carboxymethyl)piperazine-1-carbonyl)-L-lysine, O=C(NCCCC[C@H](N[*:1])C(=O)[*:2])N1CCN(CC(=O)[*:3])CC1; Bph3F = (S)-2-amino-3-(3'-fluoro-[1,1'-biphenyl]-4-yl)propanoic acid, O=C([C@H](Cc1ccc(-c2cccc(F)c2)cc1)N[*:1])[*:2]; Cha4tH = (S)-2-amino-3-((1r,4S)-4-hydroxycyclohexyl)propanoic acid, O=C([C@H](C[C@H]1CC[C@H](O[*:3])CC1)N[*:1])[*:2]; 3Pal(6-Ph) = N[C@@H](Cc1ccc(-c2ccccc2)nc1)C(=O)O; X3 = O=C(C[C@@H](Cc1ccc(F)cc1)C(=O)[*:1])C[*:2]; Phe(4-COOH) = N[C@@H](Cc1ccc(C(=O)O)cc1)C(=O)O; NMePhe(4-Cl) = CN[C@@H](Cc1ccc(Cl)cc1)C(=O)O; NMePhe(4-Me) = CN[C@@H](Cc1ccc(C)cc1)C(=O)O; Bip = N[C@@H](Cc1ccc(-c2ccccc2)cc1)C(=O)O; Phe(3-Cl) = N[C@@H](Cc1cccc(Cl)c1)C(=O)O; hTyr = N[C@@H](CCc1ccc(O)cc1)C(=O)O; cisHyp = O=C(O)[C@@H]1C[C@H](O)CN1; Hyp = O=C(O)[C@@H]1C[C@@H](O)CN1; NMeF = CN[C@@H](Cc1ccccc1)C(=O)O; Aad = N[C@@H](CCCC(=O)O)C(=O)O; Cha = N[C@@H](CC1CCCCC1)C(=O)O; β3hC = N[C@@H](CS)CC(=O)O; Abu = CC[C@H](N)C(=O)O; βAla = NCCC(=O)O

Tests used:
[1] = target: T1, BMP4 (Homo sapiens, UniProt P12644); assay: BMP4 signal transduction inhibitory activity: SMAD1 phosphorylation by BMP4 stimulus, AlphaLISA SureFire, A549 cells; type: cell-based; conditions: for aLISA BMP4: A549 cells
T1 sequence (P12644 293-408): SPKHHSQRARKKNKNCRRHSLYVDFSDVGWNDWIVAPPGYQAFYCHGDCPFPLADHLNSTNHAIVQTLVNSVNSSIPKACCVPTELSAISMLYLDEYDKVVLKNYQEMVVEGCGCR

[2] = target: T2, BMP7 (Homo sapiens, UniProt P18075); assay: BMP7 signal transduction inhibitory activity: SMAD1 phosphorylation by BMP7 stimulus, A549 cells; type: cell-based; conditions: for aLISA BMP7: A549 cells
T2 sequence (P18075 293-431): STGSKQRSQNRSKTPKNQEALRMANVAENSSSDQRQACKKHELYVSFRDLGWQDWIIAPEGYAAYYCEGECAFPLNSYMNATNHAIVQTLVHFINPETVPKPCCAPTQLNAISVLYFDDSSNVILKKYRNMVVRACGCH
Outline: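 Inhibition is read as reduced BMP7-driven SMAD1 phosphorylation in human A549 cells, with the BMP7 stimulus at 10 nM. Three-point peptide concentrations spanned 1–1,000 nM depending on the peptide series. Some peptides received eight-point, 1/3-ratio titrations from 100 nM or 1,000 nM, alongside a Noggin control.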

[3] = SMAD1 phosphorylation, BMP4 0.2 nM, peptide conc. in assay 0.2, 2, 20 nM
[4] = SMAD1 phosphorylation, BMP7 10 nM, peptide conc. in assay 1, 10, 100 nM
[5] = SMAD1 phosphorylation, peptides of Synthesis 2, peptide 0.02, 0.2, 2 nM
[6] = 10 nM BMP7, peptides of Synthesis 2, peptide 1, 10, 100 nM
[7] = BMP4 0.2 nM stimulus, peptide conc. in assay 2, 20, 200 nM
[8] = BMP7 10 nM stimulus, peptide conc. in assay 10, 30, 90 nM

131 ({CH2CO}-ERVYDDR[Bip]PYV[Bip]Y[Phe(4-COOH)][Phe(4-COOH)]SCG-NH2; thioether N-17; not fully specified) [compound 131]
aLISA BMP4 ([1]; inhibition of SMAD1 phosphorylation by BMP4 stimulus, peptides of Synthesis 1, classes D-F, ND): D (showed 50% or more of inhibitory activity in 0.2 nM-addition zone)
aLISA BMP7 ([2]; inhibition of SMAD1 phosphorylation by BMP7 stimulus, peptides of Synthesis 1, classes E, F, ND): F (showed less than 50% of inhibitory activity in 10 nM-addition zone and showed 50% or more of inhibitory activity in 100 nM-addition zone)

368 (FG[NMeF]G[Bip]GDE[Cha]Q[NMeF]L[Phe(4-COOH)]CG-NH2; not fully specified (N-terminus, bridges)) [compound 368]
aLISA BMP4 (0.2 nM) % inh [1, 3]: ND (the inhibitory activity was less than 30% at the maximum concentration evaluated)
aLISA BMP7 (10 nM) % inh [2, 4]: C (showed less than 30% of inhibitory activity in a zone to which the peptide was added in an amount of 1 nM and showed 30% or more of inhibitory activity in 10 nM-addition zone)

117 (EKVYVKRFPYPFYFFSCAE; not fully specified; MOD_RES 2 K represents N6-(4-(Carboxymethyl) piperazine-1-carbonyl)-L-lysine(KCOpipzaa); MOD_RES 6 K represents N6-(4-(Carboxymethyl) piperazine-1-carbonyl)-L-lysine(KCOpipzaa); MOD_RES 8 F represents (S)-3-(1,1'-Biphenyl-4-yl)-2-aminopropanoic acid(Bph); MOD_RES 12 F represents (S)-3-(1,1'-Biphenyl-4-yl)-2-aminopropanoic acid(Bph); MOD_RES 14 F represents (S)-4-(2-amino-2-carboxyethyl)benzoic aci) [compound 117]
aLISA BMP4 ([1]; inhibition of SMAD1 phosphorylation by BMP4 stimulus, peptides of Synthesis 2, classes A-C, ND): C (showed an inhibitory activity of less than 50% in 0.2 nM-addition zone and showed an inhibitory activity of 50% or more in 2 nM-addition zone were defined as B or C)
aLISA BMP7 ([2]; inhibition of SMAD1 phosphorylation by BMP7 stimulus, peptides of Synthesis 2, classes A-D, ND): C (showed less than 50% of inhibitory activity in 10 nM-addition zone and showed 50% or more of inhibitory activity in 100 nM-addition zone)

29 ({CH2CO}-ARVYVDR[3Pal(6-Ph)]PYP[Bip]Y[Phe(4-COOH)][Phe(4-COOH)]SCG-NH2; thioether N-17; not fully specified) [compound 29]
aLISA BMP4 [1, 5]: A (showed an inhibitory activity of 50% or more in a zone to which the peptide was added to in an amount of 0.2 nM)
aLISA BMP7 [2, 6]: ND (the inhibitory activity was less than 30% at the maximum concentration evaluated)

Cc1ccc(C[C@H]2C(=O)N[C@@H](CC(C)C)C(=O)N3C[C@@H](O)C[C@H]3C(=O)N[C@H](CC(=O)NCCC(=O)N[C@H](CCC(=O)O)C(=O)O)CSCC(=O)C[C@@H](Cc3ccc(F)cc3)C(=O)NCC(=O)N(C)[C@@H](Cc3ccccc3)C(=O)NCC(=O)N[C@@H](Cc3ccc(-c4ccccc4)nc3)C(=O)NCC(=O)N[C@@H](CC(=O)O)C(=O)N[C@@H](CCC(=O)O)C(=O)N[C@@H](CC3CCCCC3)C(=O)N[C@@H](CCCC(=O)O)C(=O)N2C)cc1 [SEQ ID No. 417, ClAc-F4F-G-MeF-G-3Py6Ph-G-D-E-Cha-Hgl-MeF4Me-L-P4Sh-C-bA-de-OH] (G[NMeF]G[3Pal(6-Ph)]GDE[Cha][Aad][NMePhe(4-Me)]L[cisHyp][β3hC][βAla][dE]-OH; linker N-13 via X3)
BMP4 inhibitory activity (in words) [1]: does not inhibit signal transduction of BMP 4
aLISA BMP4 [1, 5]: A (showed an inhibitory activity of 50% or more in a zone to which the peptide was added to in an amount of 0.2 nM)
BMP7 inhibitory activity (in words) [2]: same level of the BMP7 inhibitory activity as Noggin
aLISA BMP7 [2, 6]: C (showed less than 50% of inhibitory activity in 10 nM-addition zone and showed 50% or more of inhibitory activity in 100 nM-addition zone)

40 ({CH2CO}-ASVYVDK[Bip]PYP[Bip]Y[Phe(4-COOH)][Phe(4-COOH)]SCG-NH2; thioether N-17; not fully specified) [compound 40]
aLISA BMP4 [1, 5]: D (showed inhibitory activity of less than 50% in 2 nM-addition zone)
aLISA BMP7 [2, 6]: ND (the inhibitory activity was less than 30% at the maximum concentration evaluated)

318 (ERV[Phe(4-COOH)][Cha4tH][KCOpipzaa]R[3Pal(6-Ph)][KCOpipzaa]Y[Hyp][Bph3F]Y[Phe(4-COOH)][Phe(4-COOH)]SCG-NH2; not fully specified) [compound 318]
aLIZA BMP4 (0.2 nM) % inh ([1]; BMP4 0.2 nM, peptide 0.02, 0.2, 2 nM, Table 6): B (showed less than 30% of inhibitory activity in 0.02 nM-addition zone and showed 30% or more of inhibitory activity in 0.2 nM-addition zone)
aLIZA BMP7 (10 nM) % inh ([2]; BMP7 10 nM, peptide 10, 100, 1000 nM, Table 6): D (showed less than 30% of inhibitory activity in a zone to which the peptide was added in an amount of 10 nM and showed 30% or more of inhibitory activity in 100 nM-addition zone)

38 ({CH2CO}-A[KCOpipzaa]VYVDK[Bip]PYP[Bip]Y[Phe(4-COOH)][Phe(4-COOH)]SCG-NH2; thioether N-17; not fully specified) [compound 38]
aLISA BMP4 [1, 5]: A (showed an inhibitory activity of 50% or more in a zone to which the peptide was added to in an amount of 0.2 nM)
aLISA BMP7 [2, 6]: ND (the inhibitory activity was less than 30% at the maximum concentration evaluated)

369 (FG[NMeF]GFGDE[Cha]Q[NMeF]L[Phe(4-COOH)]CG-NH2; not fully specified (N-terminus, bridges)) [compound 369]
aLISA BMP4 (0.2 nM) % inh [1, 3]: ND (the inhibitory activity was less than 30% at the maximum concentration evaluated)
aLISA BMP7 (10 nM) % inh [2, 4]: D (showed less than 30% of inhibitory activity in 10 nM-addition zone and showed 30% or more of inhibitory activity in 100 nM-addition zone)

18 ({CH2CO}-ARVYVDR[Bip]SYP[Bip]Y[Phe(4-COOH)][Phe(4-COOH)]SCG-NH2; thioether N-17; not fully specified) [compound 18]
aLISA BMP4 [1, 5]: A (showed an inhibitory activity of 50% or more in a zone to which the peptide was added to in an amount of 0.2 nM)
aLISA BMP7 [2, 6]: C (showed less than 50% of inhibitory activity in 10 nM-addition zone and showed 50% or more of inhibitory activity in 100 nM-addition zone)

365 (FG[NMeF]G[Bip]GDE[Cha][Abu][NMeF]LHCG-NH2; not fully specified (N-terminus, bridges)) [compound 365]
aLISA BMP4 (0.2 nM) % inh [1, 3]: ND (the inhibitory activity was less than 30% at the maximum concentration evaluated)
aLISA BMP7 (10 nM) % inh [2, 4]: D (showed less than 30% of inhibitory activity in 10 nM-addition zone and showed 30% or more of inhibitory activity in 100 nM-addition zone)

385 (FG[NMePhe(4-Cl)]G[Bip]GDD[Cha]A[NMeF]LHCG-NH2; not fully specified) [compound 385]
aLISA BMP4 (0.2 nM) % inh [1, 7]: B (showed less than 30% of inhibitory activity in 20 nM-addition zone and showed 30% or more of inhibitory activity in 200 nM-addition zone)
aLISA BMP7 (10 nM) % inh [2, 8]: F (showed less than 30% of inhibitory activity in 10 nM-addition zone and showed 30% or more of inhibitory activity in 30 nM-addition zone)

379 (FG[NMeF]G[Phe(3-Cl)]GDD[Cha]A[NMeF]LHCG-NH2; not fully specified) [compound 379]
aLISA BMP4 (0.2 nM) % inh [1, 7]: ND (the inhibitory activity was less than 30% at the maximum concentration evaluated)
aLISA BMP7 (10 nM) % inh [2, 8]: G (showed less than 30% of inhibitory activity in 30 nM-addition zone and showed 30% or more of inhibitory activity in 90 nM-addition zone)

47 (Ac-ARVYVDR[Bip]PYP[Bip]Y[Phe(4-COOH)][Phe(4-COOH)]SC[βAla][dE]-OH; thioether (positions not given here); not fully specified (bridges)) [compound 47]
aLISA BMP4 ([1]; inhibition of SMAD1 phosphorylation by BMP4 stimulus, AlphaLISA, class by peptide concentration zone): A (showed an inhibitory activity of 50% or more in a zone to which the peptide was added to in an amount of 0.2 nM)
aLISA BMP7 ([2]; inhibition of SMAD1 phosphorylation by BMP7 stimulus, AlphaLISA, class by peptide concentration zone): ND (the inhibitory activity was less than 30% at the maximum concentration evaluated)

251 (ERVYVDR[3Pal(6-Ph)]S[hTyr]V[Bip]Y[Phe(4-COOH)][Phe(4-COOH)]SCG-NH2) [compound 251]
aLIZA BMP4 (0.2 nM) % Inh ([1]; SMAD1 phosphorylation by BMP4 stimulus, peptide conc. in assay 0.02, 0.2, 2 nM, class symbols): C (showed less than 30% of inhibitory activity in 0.2 nM-addition zone and showed 30% or more of inhibitory activity in 2 nM-addition zone)
aLIZA BMP7 (10 nM) % Inh ([2]; SMAD1 phosphorylation by BMP7 stimulus, peptide conc. in assay 10, 100, 1000 nM, class symbols): ND (the inhibitory activity was less than 30% at the maximum concentration evaluated)
